Literature values as cited in paper PMC6858539.
Read-outs that look alike come from different tables or passages of the source.

Experiments:
[1] = biological target: RodZ nascent chain on ribosome (RNC-RodZ) (Escherichia coli) (UniProt P27434)
[2] = biological target: RodZ nascent chain on ribosome (RNC-RodZ) (Escherichia coli) (UniProt P27434); remark: listed apart in the source

Sequence of UniProt P27434 (P27434 whole entry): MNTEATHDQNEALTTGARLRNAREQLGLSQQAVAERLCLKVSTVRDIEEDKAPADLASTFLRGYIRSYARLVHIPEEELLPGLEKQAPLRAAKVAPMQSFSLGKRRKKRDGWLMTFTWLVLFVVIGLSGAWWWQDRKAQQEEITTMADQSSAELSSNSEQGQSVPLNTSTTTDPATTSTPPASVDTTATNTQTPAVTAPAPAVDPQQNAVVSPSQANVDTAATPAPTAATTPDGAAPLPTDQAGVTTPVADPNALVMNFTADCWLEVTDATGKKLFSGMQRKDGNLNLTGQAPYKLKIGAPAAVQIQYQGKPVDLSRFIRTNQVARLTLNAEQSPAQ

| Substance | Kd [1] | Kd [2] |
| --- | --- | --- |
| SRP (from UniProt P0AGD7) | 24 nM | – |
| SecA (from UniProt P10408) | – | < 1 nM |
